Consider 20 substances from publication PMC4169507.

The first assay addresses fibronectin (UniProt P02751). As to the kind of experiment: SPR.
Details: not given
In the case of “AggAdsA triple mutant (Lys73Ala, Lys76Ala, and Lys78Ala) (domain or fragment)”, the Kd (in general, the constant that tells how readily two partners part at equilibrium) is > 200 µM.

“AggBdsA (AAF/I minor subunit AggB complemented with the donor strand of AggA) (domain or fragment)” yielded a Kd of 100 µM.

Another assay addresses fibronectin (UniProt P02751). Description: bacterial adherence to fibronectin-coated 96-well plates (colony counting). Conditions: plates coated with 25 µg/ml of fibronectin; in the presence of arabinose; parent: 100; read off a plot.
Turning to “AafA, major subunit of AAF/II, on wild type EAEC 042 D14A”, the percent of parent (% of binding to Fn) came to 99. On the same count and under the same terms, to “AafA, major subunit of AAF/II, on wild type EAEC 042 E57A” belongs 76; to “AafA, major subunit of AAF/II, on wild type EAEC 042 E131A”, 75; to “AafA, major subunit of AAF/II, on wild type EAEC 042 G69A”, 81. With “AafA, major subunit of AAF/II, on wild type EAEC 042 K66A”, the percent of parent (% of binding to Fn) amounted to 0. The same measure, in the same setting: to “AafA, major subunit of AAF/II, on wild type EAEC 042 K66R” belongs 51; to “AafA, major subunit of AAF/II, on wild type EAEC 042 K72A”, 6; to “AafA, major subunit of AAF/II, on wild type EAEC 042 K72R”, 100. Still for that read-out and setting: to “AafA, major subunit of AAF/II, on wild type EAEC 042 L132A” belongs 79; to “AafA, major subunit of AAF/II, on wild type EAEC 042 N88A”, 70. In the case of “AafA, major subunit of AAF/II, on wild type EAEC 042 R23A”, the percent of parent (% of binding to Fn) came to 12. Consider “AafA, major subunit of AAF/II, on wild type EAEC 042 R40A”, for which the percent of parent (% of binding to Fn) is 2. Turning to “AafA, major subunit of AAF/II, on wild type EAEC 042 R44A”, the percent of parent (% of binding to Fn) was 6. “AafA, major subunit of AAF/II, on wild type EAEC 042 S30A”: the percent of parent (% of binding to Fn) was found to be 65.

Take “AafA, major subunit of AAF/II, on wild type EAEC 042 S73A”: the percent of parent (% of binding to Fn) amounted to 80. On to “AafA, major subunit of AAF/II, on wild type EAEC 042 T38L”, for which the percent of parent (% of binding to Fn) is 72. Turning to “AafA, major subunit of AAF/II, on wild type EAEC 042 T77A”, the percent of parent (% of binding to Fn) was found to be 67. “AafA, major subunit of AAF/II, on wild type EAEC 042 T114A”: the percent of parent (% of binding to Fn) worked out at 71.
